{"source": "paper PMC10674744", "origin": "cited, not measured here", "key": {"[1]": {"target": "STRAD NES NES (Homo sapiens) (UniProt Q7RTN6)"}, "[2]": {"target": "Rev NES NES (Human immunodeficiency virus 1) (UniProt P04325)"}, "[3]": {"target": "SNUPN NES NES (Homo sapiens) (UniProt O95149)"}, "[4]": {"target": "PKI NES NES (Homo sapiens) (UniProt P61925)"}}, "note": "pKd: −log10 of the molar value.", "data": [{"substance": "CRM1 (from UniProt O14980)", "values": [{"measurement": "pKd", "setting": "[1]", "value": 4.99}, {"measurement": "pKd", "setting": "[2]", "value": 5.93}, {"measurement": "pKd", "setting": "[3]", "value": 4.90}, {"measurement": "pKd", "setting": "[4]", "value": 7.47}]}]}
